System: Bacillus subtilis
Experiment: cleaved RNA product abundance (RNA/gDNA barcode ratio) relative to median wild-type variant (ratio to wild type); higher = more accumulation of the downstream cleavage product
Conditions: cleavage site: cggR-gapA (positions -7 to +36 mutated)
Description: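 MPRA in B. subtilis. Mutagenized RNase Y cleavage-site regions (9% mutation rate) were inserted into a barcoded reporter mRNA (truncated aprE or tetM). Cells were grown in LB at 37°C to OD600 0.3. The cleaved RNA isoform was gel-purified and its barcodes counted; the RNA:gDNA barcode ratio was normalised to the median wild-type variant, and the median over barcodes is reported per variant. The printed sequence is the variable window only; the reporter flanks are not printed.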

[1] = experiment (reporter, strain, medium): exp 2b: truncated aprE reporter, strain BJT200
[2] = experiment (reporter, strain, medium): exp 4a: truncated aprE reporter, strain BJT201 with 2% xylose (RNase J1 expressed)
[3] = experiment (reporter, strain, medium): exp 6: tetM reporter, strain 168

Sequence | cleaved RNA product abundance [1] | cleaved RNA product abundance [2] | cleaved RNA product abundance [3]
ACAGACGAAGGAGCCGCAAAGAAGATACTAAGGGATGAATAATCCCTCAATATAAATATCTCTCACTTATTTAAA | 0.0772 |  | 
ACAGACGAAGGAGCCGCAAAGAAGATAGTAAGGGATGAATAATCCCTCAATATAAATATCTCTCACTTATTTAAA |  | 0.265 | 
ACAGACGAAGGAGCCGCAAAGAAGATATAAAGGGATGAATAATCCCTCAATATAAATATCTCTCACTTATTTAAA | 0.272 | 0.514 | 
ACAGACGAAGGAGCCGCAAAGAAGATATCAAGGGATGAATAATCCCTCAATATAAATATCTCTCACTTATTTAAA |  | 0.522 | 
ACAGACGAAGGAGCCGCAAAGAAGATATTAAAGGATGAATAATCCCTCAATATAAATATCTCTCACTTATTTAAA | 0.199 | 0.264 | 
ACAGACGAAGGAGCCGCAAAGAAGATATTAACGGATGAATAATCCCTCAATATAAATATCTCTCACTTATTTAAA |  | 0.207 | 
ACAGACGAAGGAGCCGCAAAGAAGATATTAAGAGATGAATAATCCCTCAATATAAATATCTCTCACTTATTTAAA | 0.128 | 0.221 | 
ACAGACGAAGGAGCCGCAAAGAAGATATTAAGGAATGAATAATCCCTCAATATAAATATCTCTCACTTATTTAAA | 0.12 | 0.175 | 
ACAGACGAAGGAGCCGCAAAGAAGATATTAAGGCATGAATAATCCCTCAATATAAATATCTCTCACTTATTTAAA | 0.088 | 0.17 | 
ACAGACGAAGGAGCCGCAAAGAAGATATTAAGGGAAGAATAATCCCTCAATATAAATATCTCTCACTTATTTAAA |  | 1 | 
ACAGACGAAGGAGCCGCAAAGAAGATATTAAGGGAGGAATAATCCCTCAATATAAATATCTCTCACTTATTTAAA |  | 0.643 | 
ACAGACGAAGGAGCCGCAAAGAAGATATTAAGGGATAAATAATCCCTCAATATAAATATCTCTCACTTATTTAAA |  | 0.78 | 0.468
ACAGACGAAGGAGCCGCAAAGAAGATATTAAGGGATCAATAATCCCTCAATATAAATATCTCTCACTTATTTAAA | 0.501 | 0.815 | 
ACAGACGAAGGAGCCGCAAAGAAGATATTAAGGGATGAAAAATCCCTCAATATAAATATCTCTCACTTATTTAAA |  | 0.376 | 
ACAGACGAAGGAGCCGCAAAGAAGATATTAAGGGATGAACAATCCCTCAATATAAATATCTCTCACTTATTTAAA |  | 0.647 | 
ACAGACGAAGGAGCCGCAAAGAAGATATTAAGGGATGAATAAACCCTCAATATAAATATCTCTCACTTATTTAAA |  | 0.574 | 
ACAGACGAAGGAGCCGCAAAGAAGATATTAAGGGATGAATAAGCCCTCAATATAAATATCTCTCACTTATTTAAA |  | 0.432 | 
ACAGACGAAGGAGCCGCAAAGAAGATATTAAGGGATGAATAATACCTCAATATAAATATCTCTCACTTATTTAAA | 0.162 | 0.237 | 
ACAGACGAAGGAGCCGCAAAGAAGATATTAAGGGATGAATAATCACTCAATATAAATATCTCTCACTTATTTAAA | 0.145 | 0.143 | 

Sequence | cleaved RNA product abundance [1] | cleaved RNA product abundance [2] | cleaved RNA product abundance [3]
ACAGACGAAGGAGCCGCAAAGAAGATATTAAGGGATGAATAATCCATCAATATAAATATCTCTCACTTATTTAAA |  | 0.207 | 
ACAGACGAAGGAGCCGCAAAGAAGATATTAAGGGATGAATAATCCCACAATATAAATATCTCTCACTTATTTAAA |  | 0.311 | 
ACAGACGAAGGAGCCGCAAAGAAGATATTAAGGGATGAATAATCCCCCAATATAAATATCTCTCACTTATTTAAA |  | 0.32 | 
ACAGACGAAGGAGCCGCAAAGAAGATATTAAGGGATGAATAATCCCTAAATATAAATATCTCTCACTTATTTAAA | 0.702 | 0.665 | 0.475
ACAGACGAAGGAGCCGCAAAGAAGATATTAAGGGATGAATAATCCCTCAAAATAAATATCTCTCACTTATTTAAA | 0.15 | 0.205 | 
ACAGACGAAGGAGCCGCAAAGAAGATATTAAGGGATGAATAATCCCTCAACATAAATATCTCTCACTTATTTAAA | 0.131 | 0.157 | 
ACAGACGAAGGAGCCGCAAAGAAGATATTAAGGGATGAATAATCCCTCAATAAAAATATCTCTCACTTATTTAAA | 0.142 |  | 
ACAGACGAAGGAGCCGCAAAGAAGATATTAAGGGATGAATAATCCCTCAATATAAAAATCTCTCACTTATTTAAA |  | 0.576 | 
ACAGACGAAGGAGCCGCAAAGAAGATATTAAGGGATGAATAATCCCTCAATATAAAGATCTCTCACTTATTTAAA |  | 0.559 | 
ACAGACGAAGGAGCCGCAAAGAAGATATTAAGGGATGAATAATCCCTCAATATAAATAACTCTCACTTATTTAAA |  | 1.07 | 
ACAGACGAAGGAGCCGCAAAGAAGATATTAAGGGATGAATAATCCCTCAATATAAATATCTCTCACTTATTTAAA | 0.68 | 0.751 | 0.612
ACAGACGAAGGAGCCGCAAAGAAGATATTAAGGGATGAATAATCCCTCAATATAAATGTCTCTCACTTATTTAAA | 0.338 | 0.393 | 
ACAGACGAAGGAGCCGCAAAGAAGATATTAAGGGATGAATAATCCCTCAATTTAAATATCTCTCACTTATTTAAA | 0.157 |  | 
ACAGACGAAGGAGCCGCAAAGAAGATATTAAGGGATGAATAATCCCTCACTATAAATATCTCTCACTTATTTAAA | 0.149 |  | 
ACAGACGAAGGAGCCGCAAAGAAGATATTAAGGGATGAATAATCCCTCTATATAAATATCTCTCACTTATTTAAA | 0.362 | 0.406 | 
ACAGACGAAGGAGCCGCAAAGAAGATATTAAGGGATGAATAATCCCTGAATATAAATATCTCTCACTTATTTAAA |  | 0.583 | 
ACAGACGAAGGAGCCGCAAAGAAGATATTAAGGGATGAATAATCCCTTAATATAAATATCTCTCACTTATTTAAA |  | 0.192 | 
ACAGACGAAGGAGCCGCAAAGAAGATATTAAGGGATGAATAATCCGTCAATATAAATATCTCTCACTTATTTAAA |  | 0.239 | 
ACAGACGAAGGAGCCGCAAAGAAGATATTAAGGGATGAATAATCCTTCAATATAAATATCTCTCACTTATTTAAA |  | 0.762 | 

Sequence | cleaved RNA product abundance [1] | cleaved RNA product abundance [2] | cleaved RNA product abundance [3]
ACAGACGAAGGAGCCGCAAAGAAGATATTAAGGGATGAATAATCGCTCAATATAAATATCTCTCACTTATTTAAA |  | 0.228 | 
ACAGACGAAGGAGCCGCAAAGAAGATATTAAGGGATGAATAATTCCTCAATATAAATATCTCTCACTTATTTAAA |  | 1.05 | 
ACAGACGAAGGAGCCGCAAAGAAGATATTAAGGGATGAATGATCCCTCAATATAAATATCTCTCACTTATTTAAA |  | 0.565 | 
ACAGACGAAGGAGCCGCAAAGAAGATATTAAGGGATGAATTATCCCTCAATATAAATATCTCTCACTTATTTAAA |  | 0.572 | 
ACAGACGAAGGAGCCGCAAAGAAGATATTAAGGGATGATTAATCCCTCAATATAAATATCTCTCACTTATTTAAA |  | 0.803 | 
ACAGACGAAGGAGCCGCAAAGAAGATATTAAGGGATGTATAATCCCTCAATATAAATATCTCTCACTTATTTAAA |  | 0.603 | 
ACAGACGAAGGAGCCGCAAAGAAGATATTAAGGGATTAATAATCCCTCAATATAAATATCTCTCACTTATTTAAA |  | 0.608 | 
ACAGACGAAGGAGCCGCAAAGAAGATATTAAGGGTTGAATAATCCCTCAATATAAATATCTCTCACTTATTTAAA | 0.43 |  | 
ACAGACGAAGGAGCCGCAAAGAAGATATTAAGGTATGAATAATCCCTCAATATAAATATCTCTCACTTATTTAAA | 0.104 | 0.117 | 
ACAGACGAAGGAGCCGCAAAGAAGATATTAAGGTATGAATAATCTCTCAATATAAATATCTCTCACTTATTTAAA | 0.105 |  | 
ACAGACGAAGGAGCCGCAAAGAAGATATTAAGTGATGAATAATCCCTCAATATAAATATCTCTCACTTATTTAAA | 0.103 | 0.137 | 
ACAGACGAAGGAGCCGCAAAGAAGATATTAATGGATGAATAATCCCTCAATATAAATATCTCTCACTTATTTAAA | 0.132 | 0.173 | 
ACAGACGAAGGAGCCGCAAAGAAGATATTACGGGATGAATAATCCCTCAATATAAATATCTCTCACTTATTTAAA | 0.409 | 0.351 | 
ACAGACGAAGGAGCCGCAAAGAAGATCTTAAGGGATGAATAATCCCTCAATATAAATATCTCTCACTTATTTAAA |  | 0.166 | 
ACAGACGAAGGAGCCGCAAAGAAGATGTTAAGGGATGAATAATCCCTCAATATAAATATCTCTCACTTATTTAAA | 0.513 | 0.741 | 
ACAGACGAAGGAGCCGCAAAGAAGATTTTAAGGCATGAATAATCCCTCAATATAAATATCTCTCACTTATTTAAA |  | 0.143 | 
ACAGACGAAGGAGCCGCAAAGAAGCTAATAAGGGATGAATAATCCCTCAATATAAATATCTCTCACTTATTTAAA | 0.247 | 0.286 | 
ACAGACGAAGGAGCCGCAAAGAAGCTATAAAGGGATGAATAATCCCTCAATATAAATATCTCTCACTTATTTAAA | 0.272 | 0.357 | 
ACAGACGAAGGAGCCGCAAAGAAGCTATTAAAGGATGAATAATCCCTCAATATAAATATCTCTCACTTATTTAAA | 0.111 | 0.144 | 
